Results reported in paper PMC5263102.

Molecular target: chimeric FcεRI (human α, rat β/γ) on hRBL^rαKO cells (human | rat (endogenous in RBL-2H3)) (UniProt P12319)
Assay: flow cytometry on cells

Chain of UniProt P12319 (P12319 26-257, change not shown, chain 1 of 3): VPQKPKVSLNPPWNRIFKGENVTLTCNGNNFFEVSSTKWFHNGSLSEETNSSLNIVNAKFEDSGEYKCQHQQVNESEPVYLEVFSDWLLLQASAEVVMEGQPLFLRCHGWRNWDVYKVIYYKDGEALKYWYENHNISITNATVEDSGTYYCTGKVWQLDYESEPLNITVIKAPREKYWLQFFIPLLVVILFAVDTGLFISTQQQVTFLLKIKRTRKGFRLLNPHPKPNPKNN
Chain of UniProt P12319 (P13386 whole entry, change not shown, chain 2 of 3, further chain): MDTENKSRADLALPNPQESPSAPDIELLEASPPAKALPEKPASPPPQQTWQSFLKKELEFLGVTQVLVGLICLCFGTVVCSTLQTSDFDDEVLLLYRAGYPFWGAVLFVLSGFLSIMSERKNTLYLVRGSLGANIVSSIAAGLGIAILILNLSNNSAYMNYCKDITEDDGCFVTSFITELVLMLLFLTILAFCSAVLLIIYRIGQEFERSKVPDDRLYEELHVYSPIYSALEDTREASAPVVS
Chain of UniProt P12319 (P20411 19-86, change not shown, chain 3 of 3, further chain): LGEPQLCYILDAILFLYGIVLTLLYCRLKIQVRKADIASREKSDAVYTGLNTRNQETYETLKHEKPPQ

% Receptor Occupied at 3.75 ng/ml IgE: 0.16%
% Receptor Occupied at 7.5 ng/ml IgE: 0.26%
% Receptor Occupied at 15 ng/ml IgE: 0.44%
% Receptor Occupied at 30 ng/ml IgE: 1.1%
% Receptor Occupied at 60 ng/ml IgE: 1.89%
% Receptor Occupied at 120 ng/ml IgE: 4%
% Receptor Occupied at 1000 ng/ml IgE: 28%
% Receptor Occupied at 4000 ng/ml IgE: 60%
% Receptor Occupied at 8000 ng/ml IgE: 78%
% Receptor Occupied at 10000 ng/ml IgE: 83%
% Receptor Occupied at 15000 ng/ml IgE: 93%
% Receptor Occupied at 20000 ng/ml IgE: 100%
koff: 1.53e-05 s⁻¹
kon: 6230 M⁻¹ s⁻¹
Substance: human IgE, Alexa 488-conjugated (hIgE^Alexa-488) (antibody)
